In patent US20180155451A1 (published 2018):

T1: FcγRIIb extracellular domain with C-terminal His tag (human, UniProt P31994 43-217)
T1 construct: extracellular domain; Soluble receptor expressed in FreeStyle293 cells, used as analyte in Biacore; also called FcgRIIb; 2b; not shown: His tag at the C terminus
T1 sequence (looked up): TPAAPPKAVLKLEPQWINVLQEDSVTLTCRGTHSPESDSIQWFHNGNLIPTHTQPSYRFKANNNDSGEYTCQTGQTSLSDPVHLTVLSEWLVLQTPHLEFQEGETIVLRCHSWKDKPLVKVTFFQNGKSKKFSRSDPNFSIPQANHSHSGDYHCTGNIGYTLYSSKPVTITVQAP


Columns and labels:
[1] = molecular target: T2, FcγRIIIa extracellular domain with C-terminal His tag (human, UniProt P08637 17-208); test: SPR; He/Con_3a divided by He/Con_2b (FcγRIIIa over FcγRIIb)
T2 construct: extracellular domain; also called FcgRIIIa; 3a; not shown: His tag at the C terminus
T2 sequence (P08637 17-208): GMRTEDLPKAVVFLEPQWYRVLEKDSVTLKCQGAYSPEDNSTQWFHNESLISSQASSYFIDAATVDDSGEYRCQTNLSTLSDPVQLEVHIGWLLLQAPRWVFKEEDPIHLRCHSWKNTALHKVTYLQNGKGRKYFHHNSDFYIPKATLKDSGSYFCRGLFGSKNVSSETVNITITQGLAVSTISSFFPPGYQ
Method: (§1) Analysis of interaction between objective antibody and the FcγR was carried out using Biacore T100 (GE Healthcare). HBS-EP+ (GE Healthcare) was used as the running buffer, and the measurement temperature was set to 25° C. Chips produced by immobilizing the antigen peptide by the amine coupling method to a Series S Sencor Chip CM5 (GE Healthcare), or alternatively, chips produced by allowing preliminarily biotinylated antigen peptides to interact with and immobilize onto a Series S Sensor Chip SA (certified) (GE Healthcare) were used. Antibodies of interest were captured onto an antigen peptide-immobilized chip, and allowed to interact to each FcγR diluted with running buffer. To regenerate and repeatedly use the chip, the antibodies captured on the chip were washed off by reacting 10 mM glycine-HCl, pH 1.5.
(§2) The FcγR-binding activity of each antibody was assessed primarily using as an indicator the FcγR-binding activity and dissociation constant for FcγR.

[2] = molecular target: T2, FcγRIIIa extracellular domain with …; test: SPR (Biacore), antibody captured on antigen peptide chip, FcγR as analyte
Method: as §1, §2

[3] = molecular target: T1, FcγRIIb extracellular domain with …; test: as above
Method: as §1, §2

Binder	He_3a/2b (IIIa/IIb) [1] [ratio]	He/Con_3a [2]	He/Con_2b [3]
GpH7-A5/GpH7-B3 variant L328_16H/GpL16-k0 (antibody, human IgG1, kappa, Heterodimerized anti-glypican-3 IgG1; L328H (EU) only in the GpH7-B3 chain; also called He Ab) heavy 1: not shown heavy 2: not shown light: DIVMTQSPLSLPVTPGEPASISCQASESLVHSNRNTYLHWYLQKPGQSPQLLIYKVSNRFSGVPDRFSGSGSGTDFTLKISRVEAEDVGVYYCSQNTHVPPTFGQGTKVEIERTVAAPSVFIFPPSDEQLKSGTASVVCLLNNFYPREAKVQWKVDNALQSGNSQESVTEQDSKDSTYSLSSTLTLSKADYEKHKVYACEVTHQGLSSPVTKSFNRGEC	0.67	54.3 relative binding (GpH7-A5/GpH7-B3/GpL16-k0 = 100)	80.6 relative binding (GpH7-A5/GpH7-B3/GpL16-k0 = 100)
GpH7-A5/GpH7-B3 variant P331_04F/GpL16-k0 (antibody, human IgG1, kappa, Heterodimerized anti-glypican-3 IgG1; P331F (EU) only in the GpH7-B3 chain; also called He Ab) heavy 1: not shown heavy 2: not shown light: DIVMTQSPLSLPVTPGEPASISCQASESLVHSNRNTYLHWYLQKPGQSPQLLIYKVSNRFSGVPDRFSGSGSGTDFTLKISRVEAEDVGVYYCSQNTHVPPTFGQGTKVEIERTVAAPSVFIFPPSDEQLKSGTASVVCLLNNFYPREAKVQWKVDNALQSGNSQESVTEQDSKDSTYSLSSTLTLSKADYEKHKVYACEVTHQGLSSPVTKSFNRGEC	0.7	77.3 relative binding (GpH7-A5/GpH7-B3/GpL16-k0 = 100)	110 relative binding (GpH7-A5/GpH7-B3/GpL16-k0 = 100)
GpH7-A5/GpH7-B3 variant L328_20W/GpL16-k0 (antibody, human IgG1, kappa, Heterodimerized anti-glypican-3 IgG1; L328W (EU) only in the GpH7-B3 chain; also called He Ab) heavy 1: not shown heavy 2: not shown light: DIVMTQSPLSLPVTPGEPASISCQASESLVHSNRNTYLHWYLQKPGQSPQLLIYKVSNRFSGVPDRFSGSGSGTDFTLKISRVEAEDVGVYYCSQNTHVPPTFGQGTKVEIERTVAAPSVFIFPPSDEQLKSGTASVVCLLNNFYPREAKVQWKVDNALQSGNSQESVTEQDSKDSTYSLSSTLTLSKADYEKHKVYACEVTHQGLSSPVTKSFNRGEC	0.16	37.4 relative binding (GpH7-A5/GpH7-B3/GpL16-k0 = 100)	235 relative binding (GpH7-A5/GpH7-B3/GpL16-k0 = 100)
GpH7-A5/GpH7-B3 variant P329_20W/GpL16-k0 (antibody, human IgG1, kappa, Heterodimerized anti-glypican-3 IgG1; P329W (EU) only in the GpH7-B3 chain; also called He Ab) heavy 1: not shown heavy 2: not shown light: DIVMTQSPLSLPVTPGEPASISCQASESLVHSNRNTYLHWYLQKPGQSPQLLIYKVSNRFSGVPDRFSGSGSGTDFTLKISRVEAEDVGVYYCSQNTHVPPTFGQGTKVEIERTVAAPSVFIFPPSDEQLKSGTASVVCLLNNFYPREAKVQWKVDNALQSGNSQESVTEQDSKDSTYSLSSTLTLSKADYEKHKVYACEVTHQGLSSPVTKSFNRGEC	0.7	31.7 relative binding (GpH7-A5/GpH7-B3/GpL16-k0 = 100)	45.1 relative binding (GpH7-A5/GpH7-B3/GpL16-k0 = 100)
GpH7-A5/GpH7-B3 variant L328_18N/GpL16-k0 (antibody, human IgG1, kappa, Heterodimerized anti-glypican-3 IgG1; L328N (EU) only in the GpH7-B3 chain; also called He Ab) heavy 1: not shown heavy 2: not shown light: DIVMTQSPLSLPVTPGEPASISCQASESLVHSNRNTYLHWYLQKPGQSPQLLIYKVSNRFSGVPDRFSGSGSGTDFTLKISRVEAEDVGVYYCSQNTHVPPTFGQGTKVEIERTVAAPSVFIFPPSDEQLKSGTASVVCLLNNFYPREAKVQWKVDNALQSGNSQESVTEQDSKDSTYSLSSTLTLSKADYEKHKVYACEVTHQGLSSPVTKSFNRGEC	0.61	49.7 relative binding (GpH7-A5/GpH7-B3/GpL16-k0 = 100)	80.8 relative binding (GpH7-A5/GpH7-B3/GpL16-k0 = 100)
GpH7-A5/GpH7-B3 variant L328_15Y/GpL16-k0 (antibody, human IgG1, kappa, Heterodimerized anti-glypican-3 IgG1; L328Y (EU) only in the GpH7-B3 chain; also called He Ab) heavy 1: not shown heavy 2: not shown light: DIVMTQSPLSLPVTPGEPASISCQASESLVHSNRNTYLHWYLQKPGQSPQLLIYKVSNRFSGVPDRFSGSGSGTDFTLKISRVEAEDVGVYYCSQNTHVPPTFGQGTKVEIERTVAAPSVFIFPPSDEQLKSGTASVVCLLNNFYPREAKVQWKVDNALQSGNSQESVTEQDSKDSTYSLSSTLTLSKADYEKHKVYACEVTHQGLSSPVTKSFNRGEC	0.35	68.3 relative binding (GpH7-A5/GpH7-B3/GpL16-k0 = 100)	193 relative binding (GpH7-A5/GpH7-B3/GpL16-k0 = 100)
GpH7-A5/GpH7-B3 variant P331_06M/GpL16-k0 (antibody, human IgG1, kappa, Heterodimerized anti-glypican-3 IgG1; P331M (EU) only in the GpH7-B3 chain; also called He Ab) heavy 1: not shown heavy 2: not shown light: DIVMTQSPLSLPVTPGEPASISCQASESLVHSNRNTYLHWYLQKPGQSPQLLIYKVSNRFSGVPDRFSGSGSGTDFTLKISRVEAEDVGVYYCSQNTHVPPTFGQGTKVEIERTVAAPSVFIFPPSDEQLKSGTASVVCLLNNFYPREAKVQWKVDNALQSGNSQESVTEQDSKDSTYSLSSTLTLSKADYEKHKVYACEVTHQGLSSPVTKSFNRGEC	0.74	74.8 relative binding (GpH7-A5/GpH7-B3/GpL16-k0 = 100)	102 relative binding (GpH7-A5/GpH7-B3/GpL16-k0 = 100)
GpH7-A5/GpH7-B3 variant L328_19Q/GpL16-k0 (antibody, human IgG1, kappa, Heterodimerized anti-glypican-3 IgG1; L328Q (EU) only in the GpH7-B3 chain; also called He Ab) heavy 1: not shown heavy 2: not shown light: DIVMTQSPLSLPVTPGEPASISCQASESLVHSNRNTYLHWYLQKPGQSPQLLIYKVSNRFSGVPDRFSGSGSGTDFTLKISRVEAEDVGVYYCSQNTHVPPTFGQGTKVEIERTVAAPSVFIFPPSDEQLKSGTASVVCLLNNFYPREAKVQWKVDNALQSGNSQESVTEQDSKDSTYSLSSTLTLSKADYEKHKVYACEVTHQGLSSPVTKSFNRGEC	0.77	81.1 relative binding (GpH7-A5/GpH7-B3/GpL16-k0 = 100)	105 relative binding (GpH7-A5/GpH7-B3/GpL16-k0 = 100)

Second part, the binder after the results:

He_3a/2b (IIIa/IIb) [1] [ratio]	He/Con_3a [2]	He/Con_2b [3]	Binder
0.72	81.9 relative binding (GpH7-A5/GpH7-B3/GpL16-k0 = 100)	114 relative binding (GpH7-A5/GpH7-B3/GpL16-k0 = 100)	GpH7-A5/GpH7-B3 variant P331_15Y/GpL16-k0 (antibody, human IgG1, kappa, Heterodimerized anti-glypican-3 IgG1; P331Y (EU) only in the GpH7-B3 chain; also called He Ab) heavy 1: not shown heavy 2: not shown light: DIVMTQSPLSLPVTPGEPASISCQASESLVHSNRNTYLHWYLQKPGQSPQLLIYKVSNRFSGVPDRFSGSGSGTDFTLKISRVEAEDVGVYYCSQNTHVPPTFGQGTKVEIERTVAAPSVFIFPPSDEQLKSGTASVVCLLNNFYPREAKVQWKVDNALQSGNSQESVTEQDSKDSTYSLSSTLTLSKADYEKHKVYACEVTHQGLSSPVTKSFNRGEC
0.58	66 relative binding (GpH7-A5/GpH7-B3/GpL16-k0 = 100)	114 relative binding (GpH7-A5/GpH7-B3/GpL16-k0 = 100)	GpH7-A5/GpH7-B3 variant P331_07I/GpL16-k0 (antibody, human IgG1, kappa, Heterodimerized anti-glypican-3 IgG1; P331I (EU) only in the GpH7-B3 chain; also called He Ab) heavy 1: not shown heavy 2: not shown light: DIVMTQSPLSLPVTPGEPASISCQASESLVHSNRNTYLHWYLQKPGQSPQLLIYKVSNRFSGVPDRFSGSGSGTDFTLKISRVEAEDVGVYYCSQNTHVPPTFGQGTKVEIERTVAAPSVFIFPPSDEQLKSGTASVVCLLNNFYPREAKVQWKVDNALQSGNSQESVTEQDSKDSTYSLSSTLTLSKADYEKHKVYACEVTHQGLSSPVTKSFNRGEC
0.74	73.4 relative binding (GpH7-A5/GpH7-B3/GpL16-k0 = 100)	99.2 relative binding (GpH7-A5/GpH7-B3/GpL16-k0 = 100)	GpH7-A5/GpH7-B3 variant P331_18N/GpL16-k0 (antibody, human IgG1, kappa, Heterodimerized anti-glypican-3 IgG1; P331N (EU) only in the GpH7-B3 chain; also called He Ab) heavy 1: not shown heavy 2: not shown light: DIVMTQSPLSLPVTPGEPASISCQASESLVHSNRNTYLHWYLQKPGQSPQLLIYKVSNRFSGVPDRFSGSGSGTDFTLKISRVEAEDVGVYYCSQNTHVPPTFGQGTKVEIERTVAAPSVFIFPPSDEQLKSGTASVVCLLNNFYPREAKVQWKVDNALQSGNSQESVTEQDSKDSTYSLSSTLTLSKADYEKHKVYACEVTHQGLSSPVTKSFNRGEC
0.71	78.6 relative binding (GpH7-A5/GpH7-B3/GpL16-k0 = 100)	111 relative binding (GpH7-A5/GpH7-B3/GpL16-k0 = 100)	GpH7-A5/GpH7-B3 variant P331_20W/GpL16-k0 (antibody, human IgG1, kappa, Heterodimerized anti-glypican-3 IgG1; P331W (EU) only in the GpH7-B3 chain; also called He Ab) heavy 1: not shown heavy 2: not shown light: DIVMTQSPLSLPVTPGEPASISCQASESLVHSNRNTYLHWYLQKPGQSPQLLIYKVSNRFSGVPDRFSGSGSGTDFTLKISRVEAEDVGVYYCSQNTHVPPTFGQGTKVEIERTVAAPSVFIFPPSDEQLKSGTASVVCLLNNFYPREAKVQWKVDNALQSGNSQESVTEQDSKDSTYSLSSTLTLSKADYEKHKVYACEVTHQGLSSPVTKSFNRGEC
0.74	74.1 relative binding (GpH7-A5/GpH7-B3/GpL16-k0 = 100)	99.8 relative binding (GpH7-A5/GpH7-B3/GpL16-k0 = 100)	GpH7-A5/GpH7-B3 variant P331_14T/GpL16-k0 (antibody, human IgG1, kappa, Heterodimerized anti-glypican-3 IgG1; P331T (EU) only in the GpH7-B3 chain; also called He Ab) heavy 1: not shown heavy 2: not shown light: DIVMTQSPLSLPVTPGEPASISCQASESLVHSNRNTYLHWYLQKPGQSPQLLIYKVSNRFSGVPDRFSGSGSGTDFTLKISRVEAEDVGVYYCSQNTHVPPTFGQGTKVEIERTVAAPSVFIFPPSDEQLKSGTASVVCLLNNFYPREAKVQWKVDNALQSGNSQESVTEQDSKDSTYSLSSTLTLSKADYEKHKVYACEVTHQGLSSPVTKSFNRGEC
0.69	80.2 relative binding (GpH7-A5/GpH7-B3/GpL16-k0 = 100)	116 relative binding (GpH7-A5/GpH7-B3/GpL16-k0 = 100)	GpH7-A5/GpH7-B3 variant P331_16H/GpL16-k0 (antibody, human IgG1, kappa, Heterodimerized anti-glypican-3 IgG1; P331H (EU) only in the GpH7-B3 chain; also called He Ab) heavy 1: not shown heavy 2: not shown light: DIVMTQSPLSLPVTPGEPASISCQASESLVHSNRNTYLHWYLQKPGQSPQLLIYKVSNRFSGVPDRFSGSGSGTDFTLKISRVEAEDVGVYYCSQNTHVPPTFGQGTKVEIERTVAAPSVFIFPPSDEQLKSGTASVVCLLNNFYPREAKVQWKVDNALQSGNSQESVTEQDSKDSTYSLSSTLTLSKADYEKHKVYACEVTHQGLSSPVTKSFNRGEC
